Residue numbers refer to the chain shown, from its start. Where two headings read alike, the source gives them in different places.
Assays:
[1] = biological target: HIV-1 Env of strain SC422661.8 (HIV-1)
[2] = biological target: HIV-1 Env of strain Du172.17 (HIV-1)
[3] = biological target: HIV-1 Env of strain TRO.11 (HIV-1)
[4] = biological target: HIV-1 Env of strain CAP45.2.00.G3 (HIV-1)
[5] = biological target: HIV-1 Env of strain AC10.0.29 (HIV-1)
[6] = biological target: HIV-1 Env of strain CAP210.2.00.E8 (HIV-1)
[7] = biological target: Env (gp120) of HIV-1 strain TRO.11 (HIV-1)
[8] = biological target: Env (gp120) of HIV-1 strain SC422661.8 (HIV-1)
[9] = biological target: Env (gp120) of HIV-1 strain AC10.0.29 (HIV-1)
[10] = biological target: Env (gp120) of HIV-1 strain Du172.17 (HIV-1)
[11] = biological target: Env (gp120) of HIV-1 strain CAP45.2.00.G3 (HIV-1)
[12] = biological target: Env (gp120) of HIV-1 strain CAP210.2.00.E8 (HIV-1)
[13] = biological target: Env (gp120) of HIV-1 strain TRO.11 (HIV-1); remark: listed apart in the source
[14] = biological target: Env (gp120) of HIV-1 strain SC422661.8 (HIV-1); remark: listed apart in the source
[15] = biological target: Env (gp120) of HIV-1 strain QH0692.42 (HIV-1)
[16] = biological target: Env (gp120) of HIV-1 strain AC10.0.29 (HIV-1); remark: listed apart in the source
[17] = biological target: Env (gp120) of HIV-1 strain CAP45.2.00.G3 (HIV-1); remark: listed apart in the source
[18] = biological target: Env (gp120) of HIV-1 strain T257-31 (HIV-1)
[19] = biological target: Env (gp120) of HIV-1 strain ZM214M.PL15 (HIV-1)
[20] = biological target: HIV-1 Env of strain QH0692.42 (HIV-1)
[21] = biological target: HIV-1 Env of strain SC422661.8 (HIV-1); remark: listed apart in the source
[22] = biological target: HIV-1 Env of strain ZM214M.PL15.11 (HIV-1)
[23] = biological target: HIV-1 Env of strain T257-31 (HIV-1)
[24] = biological target: HIV-1 Env of strain TRO.11 (HIV-1); remark: listed apart in the source
[25] = biological target: HIV-1 Env of strain CAP45.2.00.G3 (HIV-1); remark: listed apart in the source
[26] = biological target: HIV-1 Env of strain AC10.0.29 (HIV-1); remark: listed apart in the source
[27] = biological target: Env (gp120) of HIV-1 strain 3016.v5.c45 (HIV-1)
[28] = biological target: Env (gp120) of HIV-1 strain C2101.c01 (HIV-1)

In the case of 3BNC55 T54W IgG (antibody), the In vitro neutralization IC50 [1] is reported as 0.6 µg/mL, the In vitro neutralization IC50 [2] is reported as > 50 µg/mL and the In vitro neutralization IC50 [3] is reported as > 50 µg/mL. The In vitro neutralization IC50 [4] was > 50 µg/mL, the In vitro neutralization IC50 [5] was > 50 µg/mL and the In vitro neutralization IC50 [6] was > 50 µg/mL.

In the case of 3BNC60 T54W IgG (antibody), the In vitro neutralization IC50 [1] is reported as 0.1 µg/mL, the In vitro neutralization IC50 [2] is reported as 0.04 µg/mL and the In vitro neutralization IC50 [3] is reported as 0.06 µg/mL. For the same molecule, the In vitro neutralization IC50 [4] was 19 µg/mL, the In vitro neutralization IC50 [5] was 3.1 µg/mL and the In vitro neutralization IC50 [6] was 5 µg/mL.

For 3BNC117 T54W IgG (antibody), the In vitro neutralization IC50 [1] was 0.07 µg/mL, the In vitro neutralization IC50 [2] was 0.9 µg/mL and the In vitro neutralization IC50 [3] was 0.6 µg/mL. For the same molecule, the In vitro neutralization IC50 [4] was 23 µg/mL, the In vitro neutralization IC50 [5] was 2.8 µg/mL and the In vitro neutralization IC50 [6] was 2.8 µg/mL.

Molecule 12A12 Y54W IgG (antibody) has an In vitro neutralization IC50 [1] of 0.2 µg/mL, an In vitro neutralization IC50 [2] of 0.1 µg/mL and an In vitro neutralization IC50 [3] of 0.2 µg/mL. For the same molecule, the In vitro neutralization IC50 [4] was 0.2 µg/mL, the In vitro neutralization IC50 [5] was 0.5 µg/mL and the In vitro neutralization IC50 [6] was > 50 µg/mL.

NIH45-46 G54H IgG (antibody) was tested, and the neutralization IC50 [7] was 0.2 µg/mL, the neutralization IC50 [8] was 0.09 µg/mL and the neutralization IC50 [9] was 0.6 µg/mL. The neutralization IC50 [10] was > 50 µg/mL, the neutralization IC50 [11] was > 50 µg/mL and the neutralization IC50 [12] was > 50 µg/mL.

NIH45-46 G54I IgG (antibody) was tested, and the neutralization IC50 [7] was 10 µg/mL, the neutralization IC50 [8] was 0.1 µg/mL and the neutralization IC50 [9] was 8.6 µg/mL. For the same molecule, the neutralization IC50 [10] was > 50 µg/mL, the neutralization IC50 [11] was > 50 µg/mL and the neutralization IC50 [12] was > 50 µg/mL.

With NIH45-46 G54L IgG (antibody) the neutralization IC50 [7] was 0.3 µg/mL, the neutralization IC50 [8] was 0.1 µg/mL and the neutralization IC50 [9] was 1.7 µg/mL. For the same molecule, the neutralization IC50 [10] was > 50 µg/mL, the neutralization IC50 [11] was > 50 µg/mL and the neutralization IC50 [12] was > 50 µg/mL.

In the case of NIH45-46 G54M IgG (antibody), the neutralization IC50 [7] is reported as 0.3 µg/mL, the neutralization IC50 [8] is reported as 0.06 µg/mL and the neutralization IC50 [9] is reported as 1.5 µg/mL. For the same molecule, the neutralization IC50 [10] was > 50 µg/mL, the neutralization IC50 [11] was > 50 µg/mL and the neutralization IC50 [12] was > 50 µg/mL.

In the case of NIH45-46 Y99dA (antibody), the neutralization IC50 [13] is reported as > 50 µg/mL, the neutralization IC50 [14] is reported as 0.08 µg/mL and the neutralization IC50 [15] is reported as 2.1 µg/mL. The neutralization IC50 [16] was 4.4 µg/mL, the neutralization IC50 [17] was > 50 µg/mL and the neutralization IC50 [18] was 2.4 µg/mL. The neutralization IC50 [19] was 1.1 µg/mL.

“NIH45-46 heavy chain paired with VRC01 light chain, IgG (antibody)” showed an In vitro neutralization IC50 [20] of 0.9 µg/mL, an In vitro neutralization IC50 [21] of 0.2 µg/mL and an In vitro neutralization IC50 [22] of 0.6 µg/mL. For the same molecule, the In vitro neutralization IC50 [23] was 0.6 µg/mL, the In vitro neutralization IC50 [24] was 0.3 µg/mL and the In vitro neutralization IC50 [25] was 2.1 µg/mL. For the same molecule, the In vitro neutralization IC50 [26] was 1 µg/mL.

With NIH45-46 Δ99a-99d (antibody) the neutralization IC50 [13] was > 50 µg/mL, the neutralization IC50 [14] was 1.4 µg/mL and the neutralization IC50 [15] was 3.7 µg/mL. The neutralization IC50 [16] was 13 µg/mL, the neutralization IC50 [17] was > 50 µg/mL and the neutralization IC50 [18] was 7 µg/mL. It also gave a neutralization IC50 [19] of 2.2 µg/mL.

In the case of VRC01 (antibody), the neutralization IC50 [27] is reported as 0.16 µg/mL and the neutralization IC50 [28] is reported as 0.36 µg/mL.

VRC01 IgG (antibody) gave an In vitro neutralization IC50 [20] of 0.7 µg/mL, an In vitro neutralization IC50 [21] of 0.2 µg/mL and an In vitro neutralization IC50 [22] of 0.8 µg/mL. The In vitro neutralization IC50 [24] was 0.5 µg/mL, the In vitro neutralization IC50 [25] was 1.8 µg/mL and the In vitro neutralization IC50 [26] was 0.8 µg/mL.

With “VRC01 heavy chain paired with NIH45-46 light chain, IgG (antibody)” the In vitro neutralization IC50 [20] was 1.2 µg/mL, the In vitro neutralization IC50 [21] was 0.4 µg/mL and the In vitro neutralization IC50 [22] was 1.8 µg/mL. The In vitro neutralization IC50 [23] was 15 µg/mL, the In vitro neutralization IC50 [24] was 24 µg/mL and the In vitro neutralization IC50 [25] was > 50 µg/mL. For the same molecule, the In vitro neutralization IC50 [26] was 4.5 µg/mL.

B1: 3BNC60 IgG (wild type) (antibody)
heavy: QVHLSQSGAAVTKPGASVRVSCEASGYKISDHFIHWWRQAPGQGLQWVGWINPKTGQPNNPRQFQGRVSLTRQASWDFDTYSFYMDLKAVRSDDTAIYFCARQRSDFWDFDVWGSGTQVTVSS
light: DIQMTQSPSSLSARVGDTVTITCQANGYLNWYQQRRGKAPKLLIYDGSKLERGVPARFSGRRWGQEYNLTINNLQPEDVATYFCQVYEFIVPGTRLDLKRTVA
In the case of B1, the In vitro neutralization IC50 [1] is reported as 0.1 µg/mL, the In vitro neutralization IC50 [2] is reported as 0.05 µg/mL and the In vitro neutralization IC50 [3] is reported as 0.07 µg/mL. It also gave an In vitro neutralization IC50 [4] of 10 µg/mL, an In vitro neutralization IC50 [5] of 13 µg/mL and an In vitro neutralization IC50 [6] of 4.7 µg/mL.

B2: 3BNC117 IgG (wild type) (antibody)
heavy: B1 heavy with H3Q, S5L, K28N, S30R, H32Y, Q73H, Y81F, V90L, I97V, F107Y
light: B1 light with R14S, A56S, V79I, I90V
B2 showed an In vitro neutralization IC50 [1] of 0.07 µg/mL, an In vitro neutralization IC50 [2] of 0.04 µg/mL and an In vitro neutralization IC50 [3] of 0.6 µg/mL. For the same molecule, the In vitro neutralization IC50 [4] was 16 µg/mL, the In vitro neutralization IC50 [5] was 6.5 µg/mL and the In vitro neutralization IC50 [6] was 11 µg/mL.

B3: 3BNC55 IgG (wild type) (antibody, V domains shown)
VH: QVQLVQSGTAVKRPGASVRVSCQASGYTFTDYFIYWWRQAPGQGLEWLGWINPLTSQPSYPSRFQGRLTLTRDTFDEMLYMDLRGLRSDDTGIYFCARRHSDYCDFDIWGSGTQIIVSS
VL: DIQMTQSPSSLSASVGDKVTITCQTSAGYLNWYQQRRGRAPKLLMYDGSRLVTGVPSRFSGRRWGTQYNLTIGSLQPEDIATYYCQVYEFFGPGTRLDLKS
B3 gave an In vitro neutralization IC50 [1] of 0.3 µg/mL, an In vitro neutralization IC50 [2] of 2 µg/mL and an In vitro neutralization IC50 [3] of 7.6 µg/mL. For the same molecule, the In vitro neutralization IC50 [4] was > 50 µg/mL, the In vitro neutralization IC50 [5] was > 50 µg/mL and the In vitro neutralization IC50 [6] was > 50 µg/mL.

B4: 12A12 IgG (wild type) (antibody, V domains shown)
VH: SQHLVQSGTQVKKPGASVRISCQASGYSFTDYVLHWWRQAPGQGLEWMGWIKPVYGARNYARRFQGRINFDRDIYREIAFMDLSGLRSDDTALYFCARDGSGDDTSWHLDPWGQGTLVIVSA
VL: DIQMTQSPSSLSASVGDRVTITCQAGQGIGSSLQWYQQKPGKAPKLLVHGASNLHRGVPSRFSGSGFHTTFSLTISGLQRDDFATYFCAVLEFFGPGTKVEIKR
B4 was tested, and the In vitro neutralization IC50 [1] was 0.2 µg/mL, the In vitro neutralization IC50 [2] was 0.2 µg/mL and the In vitro neutralization IC50 [3] was 0.3 µg/mL. The In vitro neutralization IC50 [4] was 0.4 µg/mL, the In vitro neutralization IC50 [5] was 0.6 µg/mL and the In vitro neutralization IC50 [6] was > 50 µg/mL.
